Assay results: US20210395743, “SELF-ASSEMBLING NUCLEIC ACID SURFACES FOR BIOSENSOR APPLICATIONS” (INSTITUT NATIONAL DE LA RECHERCHE SCIENTIFIQUE, published 2021)

Target: PDGF-BB (UniProt P01127 P01127:82-190)
Test: SPR; aptamer on DNA honeycomb on gold; phosphate buffer 137 mM NaCl, 2.7 mM KCl, 1 mM MgCl2, pH 7.4
Conditions: chain copies: 2 (homodimer, inferred)
Protocol: The sensing surface was then exposed to the Platelet-derived growth factor aptamer which had been modified, as in Table III (SEQ ID NO:16), to include a 25 bp poly A tail at a concentration of 50 nM in 10 mM Tris pH 7.4 1 M NaCl 1 mM EDTA and incubated for an hour.
The sensing surface was washed with 10.1 mM Na₂HPO₄, 1.8 mM KH₂PO₄, 137 mM NaCl and 2.7 mM KCl, 1 mM MgCl2, pH 7.4. Detection of PDGF was performed in the same buffer where the surface was exposed to increasing concentrations of the ligands and response was recorded.

Chain of PDGF-BB (P01127 82-190, one chain of several): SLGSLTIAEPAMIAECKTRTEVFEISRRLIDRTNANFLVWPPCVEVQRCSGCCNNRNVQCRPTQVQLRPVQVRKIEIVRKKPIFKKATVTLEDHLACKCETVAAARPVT

B1: PDGF-BB aptamer with 25-nt poly A tail (SEQ ID NO: 16), on honeycomb DNA scaffold (ssDNA)
DNA: CACAGGCTACGGCACGTAGAGCATCACCATGATCCTGTGAAAAAAAAAAAAAAAAAAAAAAAAA
Question: With B1 as the binder, how does the Kd read?
Answer: Its Kd is 28 nM.
